This is an account of results in patent publication US20070298445, “Cancer Therapeutic” (published 2007).

The target of the data set is ZNF306 (UniProt Q9BRR0 Q9BRR0:1-538). Description: cell_activity; luciferase induction, duplicate tandem copies upstream of minimal tk promoter. The following applies: tags: expression plasmid or cDNA in colon cancer cells.
ZNF306, sequence (Q9BRR0 whole entry, one chain of several): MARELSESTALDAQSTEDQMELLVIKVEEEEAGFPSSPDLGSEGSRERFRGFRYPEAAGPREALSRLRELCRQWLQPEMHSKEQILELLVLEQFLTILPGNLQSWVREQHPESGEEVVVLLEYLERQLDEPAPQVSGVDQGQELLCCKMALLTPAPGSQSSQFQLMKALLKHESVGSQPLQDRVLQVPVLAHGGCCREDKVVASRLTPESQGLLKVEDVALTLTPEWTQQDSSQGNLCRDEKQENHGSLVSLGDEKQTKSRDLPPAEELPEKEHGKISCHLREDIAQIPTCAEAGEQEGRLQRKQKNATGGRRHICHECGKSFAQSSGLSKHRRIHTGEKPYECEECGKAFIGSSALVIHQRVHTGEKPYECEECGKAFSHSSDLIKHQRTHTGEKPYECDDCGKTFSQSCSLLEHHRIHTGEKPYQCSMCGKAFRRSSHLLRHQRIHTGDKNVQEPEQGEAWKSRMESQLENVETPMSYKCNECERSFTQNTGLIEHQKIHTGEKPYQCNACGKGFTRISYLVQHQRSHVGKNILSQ

B1: integrin beta4 intron 1 wt probe (dsDNA)
DNA 1: TGAGGGG
DNA 2: CCCCTCA
Molecule B1 came in with an activity of 6 fold.
